Source: patent publication US20190055314A1 (ADAGENE, published 2019)
Substitutions are numbered along the chain they refer to.

T1: mouse CD137 fused with human FC fragment (mouse, UniProt P20334 24-178, limits assumed)
T1 construct: also called mouse CD137-Fc; not shown: human Fc fragment
T1 sequence: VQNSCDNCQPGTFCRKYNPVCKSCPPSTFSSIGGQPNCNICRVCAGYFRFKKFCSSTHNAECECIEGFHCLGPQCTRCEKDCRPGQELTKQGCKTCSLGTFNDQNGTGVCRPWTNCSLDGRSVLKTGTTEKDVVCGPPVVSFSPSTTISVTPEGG

T2: CD120a
T2 chain: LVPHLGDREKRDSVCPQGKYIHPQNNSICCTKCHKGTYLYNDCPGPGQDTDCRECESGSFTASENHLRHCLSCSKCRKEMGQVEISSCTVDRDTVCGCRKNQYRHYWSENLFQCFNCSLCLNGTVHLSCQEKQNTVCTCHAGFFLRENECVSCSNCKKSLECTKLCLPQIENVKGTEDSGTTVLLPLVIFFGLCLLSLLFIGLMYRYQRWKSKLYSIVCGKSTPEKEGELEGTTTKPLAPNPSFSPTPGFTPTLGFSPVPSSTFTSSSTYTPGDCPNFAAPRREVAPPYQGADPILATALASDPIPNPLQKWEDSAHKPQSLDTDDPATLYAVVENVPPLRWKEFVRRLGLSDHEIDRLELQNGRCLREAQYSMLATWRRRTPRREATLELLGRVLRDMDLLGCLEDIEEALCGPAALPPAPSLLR

T3: full-length mouse CD137 on the cell surface (mouse, UniProt P20334 24-178)
T3 sequence: T1 sequence

T4: OX40 overexpressed on HEK293F cells (UniProt P43489 29-277, limits assumed)
T4 construct: whole, on cells
T4 sequence (looked up): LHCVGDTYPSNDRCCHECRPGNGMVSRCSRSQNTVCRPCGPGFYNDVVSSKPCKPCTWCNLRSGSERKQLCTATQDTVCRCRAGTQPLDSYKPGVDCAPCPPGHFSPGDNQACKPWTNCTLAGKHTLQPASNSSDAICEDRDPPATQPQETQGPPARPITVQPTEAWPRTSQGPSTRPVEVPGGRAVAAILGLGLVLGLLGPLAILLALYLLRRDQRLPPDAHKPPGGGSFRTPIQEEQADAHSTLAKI

T5: GITR overexpressed on HEK293F cells (UniProt Q9Y5U5 26-241, limits assumed)
T5 construct: whole, on cells
T5 sequence (looked up): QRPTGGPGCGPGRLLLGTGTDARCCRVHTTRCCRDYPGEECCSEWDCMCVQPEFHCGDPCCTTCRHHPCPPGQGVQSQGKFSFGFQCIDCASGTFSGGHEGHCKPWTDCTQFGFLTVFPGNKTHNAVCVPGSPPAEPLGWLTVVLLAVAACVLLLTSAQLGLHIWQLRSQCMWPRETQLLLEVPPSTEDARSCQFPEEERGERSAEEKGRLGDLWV

T6: CD27 overexpressed on HEK293F cells (UniProt P26842 20-260, limits assumed)
T6 construct: whole, on cells
T6 sequence (looked up): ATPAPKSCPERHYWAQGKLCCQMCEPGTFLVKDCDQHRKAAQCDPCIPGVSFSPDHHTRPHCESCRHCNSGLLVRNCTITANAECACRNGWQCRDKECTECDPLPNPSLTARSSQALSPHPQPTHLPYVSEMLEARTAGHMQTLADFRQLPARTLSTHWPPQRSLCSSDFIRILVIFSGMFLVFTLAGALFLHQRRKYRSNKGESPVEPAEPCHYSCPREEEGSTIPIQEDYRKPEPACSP

B1: AG10059 (antibody, human IgG4 S228P, kappa, V domains shown)
VH: EVQLVESGGGLVQPGGSLRLSCAASGYSITSGHYWAWIRQAPGKGLEWVSSISGYGSTTYYADSVKGRFTISRDNSKNTLYLQLNSLRAEDTAVYYCARGGSDAVLGDWFAYWGQGTLVTVSS
VL: DIQLTQSPSSLSASVGDRVTITCRASQGIGSFLAWYQQKPGKAPKLLIYDASNLETGVPSRFSGSGSGTDFTLTISSLQPEDFATYYCQQGYYLWTFGQGTKVEIKR
B2: AG10058 (antibody, human IgG4 S228P, kappa, V domains shown)
VH: EVQLVESGGGLVQPGGSLRLSCAASGFSLSTSGVGVGWIRQAPGKGLEWLALIDWDDDKYYSPSLKSRLTISRDNSKNTLYLQLNSLRAEDTAVYYCARGGSDTVLGDWFAYWGQGTLVTVSS
VL: B1 VL with G28S, I29V, G30S, S31P, F32Y, N53S, T56S, Y93S

Tests used:
[1] = target: T1, mouse CD137 fused with human FC fragment; test: ELISA, CD137-Fc coated in serial dilution, IgG 5 µg/mL, protein L-HRP
CD120a [2] = target: T2, CD120a; test: flow cytometry, HEK293F cells expressing the receptor [Cont.]
[3] = target: T7, human CD137-His6 (Sino Biological #10041-H08H) (human, UniProt Q07011 24-186); test: SPR Biacore, IgG captured; Table 3 run, IgG captured by anti-human Fc; Table 1b gives 3.8E-08 M from a separate measurement
T7 construct: Bought; also called human CD137 protein; not shown: His6 tag

Hu_F36A = target: T8, Hu_F36A (human, UniProt Q07011 18-255); test: flow cytometry, HEK293F
T8 construct: On HEK293F; also called human CD137 F36A
T8 sequence (Q07011 18-255 F36A): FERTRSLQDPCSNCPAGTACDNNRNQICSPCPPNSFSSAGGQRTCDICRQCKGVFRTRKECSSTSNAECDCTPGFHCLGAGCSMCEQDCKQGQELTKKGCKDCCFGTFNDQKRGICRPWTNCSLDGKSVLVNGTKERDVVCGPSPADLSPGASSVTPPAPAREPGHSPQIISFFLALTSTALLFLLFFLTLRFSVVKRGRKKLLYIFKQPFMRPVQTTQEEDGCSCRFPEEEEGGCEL

Hu_N83A = target: T9, Hu_N83A (human, UniProt Q07011 18-255); test: flow cytometry, HEK293F
T9 construct: On HEK293F; also called human CD137 N83A
T9 sequence (Q07011 18-255 N83A): as the sequence (Q07011 18-255 F36A) above, with A19F, N66A counted along it

Hu_R66A = target: T10, Hu_R66A (human, UniProt Q07011 18-255); test: flow cytometry, HEK293F
T10 construct: On HEK293F; also called human CD137 R66A

Hu_T35A = target: T11, Hu_T35A (human, UniProt Q07011 18-255); test: flow cytometry, HEK293F
T11 construct: On HEK293F; also called human CD137 T35A
T11 sequence (Q07011 18-255 T35A): as the sequence (Q07011 18-255 F36A) above, with T18A, A19F counted along it

Hu_F53A = target: T12, Hu_F53A (human, UniProt Q07011 18-255); test: flow cytometry, HEK293F
T12 construct: On HEK293F; also called human CD137 F53A
T12 sequence (Q07011 18-255 F53A): as the sequence (Q07011 18-255 F36A) above, with A19F, F36A counted along it

Hu_F72A = target: T13, Hu_F72A (human, UniProt Q07011 18-255); test: flow cytometry, HEK293F
T13 construct: On HEK293F; also called human CD137 F72A
T13 sequence (Q07011 18-255 F72A): as the sequence (Q07011 18-255 F36A) above, with A19F, F55A counted along it

Hu_F92A = target: T14, Hu_F92A (human, UniProt Q07011 18-255); test: flow cytometry, HEK293F
T14 construct: On HEK293F; also called human CD137 F92A

[4] = target: T3, full-length mouse CD137 on the cell …; test: cell-based or functional assay
CD120a [5] = target: T2, CD120a; test: flow cytometry, HEK293F cells expressing the receptor, antibody 100 nM [Cont.]
[6] = target: T15, CD40 overexpressed on HEK293F cells (UniProt P25942 21-277, limits assumed); test: flow cytometry, HEK293F cells expressing the receptor
T15 construct: whole, on cells
T15 sequence (P25942 21-277 limits assumed): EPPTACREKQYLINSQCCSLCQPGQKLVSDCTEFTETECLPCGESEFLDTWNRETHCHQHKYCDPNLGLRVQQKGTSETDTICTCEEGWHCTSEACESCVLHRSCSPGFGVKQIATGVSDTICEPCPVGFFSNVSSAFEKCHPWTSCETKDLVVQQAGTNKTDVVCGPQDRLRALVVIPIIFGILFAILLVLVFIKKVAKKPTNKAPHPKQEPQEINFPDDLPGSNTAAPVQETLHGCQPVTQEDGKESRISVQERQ

[7] = target: T4, OX40 overexpressed on HEK293F cells; test: as above
[8] = target: T5, GITR overexpressed on HEK293F cells; test: as above
[9] = target: T6, CD27 overexpressed on HEK293F cells; test: as above

| Binder | binding result [1] | binding result (CD120a [2]) | Kd [3] | binding result (Hu_F36A) | binding result (Hu_N83A) | binding result (Hu_R66A) | binding result (Hu_T35A) | binding result (Hu_F53A) | binding result (Hu_F72A) | binding result (Hu_F92A) | NFκB luciferase reporter, 293T cells with mouse CD137: EC50 (read off the curve) [4] | Mean (CD120a [5]) | binding result [6] | binding result [7] | binding result [8] | binding result [9] |
| --- | --- | --- | --- | --- | --- | --- | --- | --- | --- | --- | --- | --- | --- | --- | --- | --- |
| B1 | no binding | no binding (tested: 100 nM (text paragraph 226)) | 24.2 nM |  |  |  |  |  |  |  |  |  |  |  |  |  |
| B2 |  |  |  | no binding | no binding | no binding | no binding | no binding | no binding | no binding | ~3 nM | 8070 | no binding (tested: 100 nM (text paragraph 226)) | no binding (tested: 100 nM (text paragraph 226)) | no binding (tested: 100 nM (text paragraph 226)) | no binding (tested: 100 nM (text paragraph 226)) |
